Experimental data as given in patent US10597674B2, “HPPD variants and methods of use” (BASF Agricultural Solutions Seed, US LLC, priority 2015, dated 2020).
Changes are numbered by the printed parent chain. Numbers in names are those of the source.

B1: 60 (protein)
chain: MADLYENPMGLMGFEFIEFASPTPGTLEPIFEIMGFTKVATHRSKNVHLYRQGEINLILNNEPNSIASYFAAEHGPSVCGMAFRVKDSQKAYNRALELGAQPIHIDTGPMELNLPAIKGIGGAPLYLIDRFGEGSSIYDIDFVYLEGVERNPVGAGLKVIDHLTHNVYRGRMVYWANFYEKLFNFREARYFDIKGEYTGLTSKAMSAPDGMIRIPLNEESSKGAGQIEEFLMQFNGEGIQHVAFLTDDLVKTWDALKKIGMRFRTAPGDEYYEMLEGRLPDHGEPVDQLQARGILLDGSSVEGDKRLLLQIFSETLMGPVFFEFIQRKGHDGFGPDSFKVLFEQVERDQVRRGVLTAD
modifications: mutant HPPD polypeptide
B2: 38 (protein)
chain: B1 chain with R264M, H330V, Q344S
modifications: mutant HPPD polypeptide
B3: 48 (protein)
chain: B1 chain with R264M, H330D, D331H, Q344S
modifications: mutant HPPD polypeptide
B4: 45 (protein)
chain: B1 chain with R264M, T315R, H330D, Q344S
modifications: mutant HPPD polypeptide
B5: 50 (protein)
chain: B1 chain with R264M, H330D, D331P, Q344S
modifications: mutant HPPD polypeptide
B6: 36 (protein)
chain: B1 chain with Q344S, V345M
modifications: mutant HPPD polypeptide
B7: SEQ ID NO: 105: mutant HPPD polypeptide: R213K M264L P268G T270E E335P G336H N337S A340R S344Q I345M (protein)
chain: B1 chain with R213K, R264L, H330D, D336H, V340R, V345M
modifications: mutant HPPD polypeptide
notes: mutant HPPD polypeptide: R213K M264L P268G T270E E335P G336H N337S A340R S344Q I345M
B8: SEQ ID NO: 54: mutant HPPD polypeptide: P268G T270E E335P G336D N337S K339A A340V I345V (protein)
chain: B1 chain with R264M, H330D, K339A, Q344S
modifications: mutant HPPD polypeptide
notes: mutant HPPD polypeptide: P268G T270E E335P G336D N337S K339A A340V I345V
B9: SEQ ID NO: 8: mutant HPPD polypeptide: E335P G336D N337S A340V (protein)
chain: B1 chain with R264M, G268P, E270T, H330D, Q344S, V345I
modifications: mutant HPPD polypeptide
notes: mutant HPPD polypeptide: E335P G336D N337S A340V
B10: SEQ ID NO: 101: mutant HPPD polypeptide: M264L P268G T270E T315R E335P G336D N337S A340V S344Q I345M (protein)
chain: B1 chain with R264L, T315R, H330D, V345M
modifications: mutant HPPD polypeptide
notes: mutant HPPD polypeptide: M264L P268G T270E T315R E335P G336D N337S A340V S344Q I345M
B11: SEQ ID NO: 56: mutant HPPD polypeptide: P268G T270E E335P G336D N337S K339R A340V I345V (protein)
chain: B1 chain with R264M, H330D, K339R, Q344S
modifications: mutant HPPD polypeptide
notes: mutant HPPD polypeptide: P268G T270E E335P G336D N337S K339R A340V I345V
B12: SEQ ID NO: 102: mutant HPPD polypeptide: M264L P268G (Table 2: R) T270E T315R E335P G336H N337S A340V S344Q I345M (protein)
chain: B1 chain with R264L, G268R, T315R, H330D, D336H, V345M
modifications: mutant HPPD polypeptide
B13: SEQ ID NO: 22: mutant HPPD polypeptide: E335P G336H N337S A340V (protein)
chain: B1 chain with R264M, G268P, E270T, H330D, D336H, Q344S, V345I
modifications: mutant HPPD polypeptide
notes: mutant HPPD polypeptide: E335P G336H N337S A340V
B14: SEQ ID NO: 24: mutant HPPD polypeptide: E335P G336H N337S A340V I345V (protein)
chain: B1 chain with R264M, G268P, E270T, H330D, D336H, Q344S
modifications: mutant HPPD polypeptide
notes: mutant HPPD polypeptide: E335P G336H N337S A340V I345V

Test system: HPPD polypeptides (wild-type SEQ ID NO:1 and mutants)
Experiment: not given
Conditions: kapp in presence of 50 μM Cmpd. 1, normalised to kapp without inhibitor; low substrate concentration
Experimental: For the generation of crude HPPD polypeptide extract in micro titer plates (MTP) for the determination of residual activity in inhibition assays, cells were grown in 40 or 150 μl LB medium containing 1% Glucose (Merck, Darmstadt, Germany) and 100 μg/ml ampicillin in a standard 96 well plate (Thermo Fisher Scientific, Waltham, USA) incubated for about 18 h in a humidity incubator at 37° C.
30 μl of this starter culture were added to 600 μl LB medium containing 100 μg/ml ampicillin and 150 mM Hepes (Merck, Darmstadt, Germany) as inoculum for the expression culture in 96 well plates (2 ml deep wells; HJ Bioanalytik, Erkelenz, Germany) The plates were sealed by an aluminium foil, and cells were incubated for 5 h at 37° C. on a plate shaker at 750 rpm. The expression was induced by addition of IPTG in a final concentration of 1 mM followed by further sealed incubation for about 18 h at 30° C. on a plate shaker at 750 rpm.
Cells were harvested by centrifugation at 4° C., 2500 g for 15 min discarding the supernatant. Cell pellets were stored at −80° C. and lysed in 250 μl 1× BugBuster® (Merck, Darmstadt, Germany) in 140 mM Tris (pH 7.8), with 1:25000 diluted BNase® (Qiagen, Hilden, Germany) by incubation of the resuspended cells for 30 min at 4° C. and 1000 rpm. Lysates were clarified by centrifugation for 15 min at 4° C., 2500 g, and 150 μl supernatant were transferred in standard 96 well plate (Thermo Fisher Scientific, Waltham, USA) for subsequent testing in quadruplets.
The activity of HPPD polypeptides was determined in absence or presence of HPPD inhibitors using the coupled HPPD activity assay (FIG. 1).
For the determination of the residual activity, the apparent kinetic constant (kapp) of the determined substrate conversion was measured as kinetic changes in absorbance at 320 nm in a coupled assay, in that homogentisate (HGA) formed by HPPD from HPP is directly converted into the well absorbing molecule maleylacetoacetate (MAA) by a second enzyme homogentisate dioxygenase (HGD), applied in excess uniformly in all assays (see FIG. 1). The measurements were performed in 384 micro titer plates (Greiner Bio-One GmbH, Frickenhausen, Germany) by plate readers (Tecan infinite M1000 or M1000PRO, Tecan, Männedorf, Switzerland). The kcat/kM ratio of an enzymatic activity is proportional to the apparent kinetic constant kapp and is proportional to kcat/kM*[E] ([E]=enzyme concentration). […] As both kapp measurements in the presence and absence of inhibitor were performed by use of the identical enzyme sample, crude or purified, and thereby at the same enzyme concentration, the enzyme concentration eliminates from the calculation of residual activity and the ratio of both kapp directly indicates the change of kM due to the inhibition.

Row | Molecule | Residual activity
1 | B1 | 64%
2 | B2 | 78%
3 | B3 | 47%
4 | B4 | 39%
5 | B5 | 46%
6 | B6 | 67%

Same assay, conditions: total change in signal in presence of 50 μM Cmpd. 1, normalised to that without inhibitor; low substrate concentration

Row | Molecule | Residual turnover
7 | B1 | 84%
8 | B2 | 94%
9 | B3 | 74%
10 | B4 | 68%
11 | B5 | 80%
12 | B6 | 85%

Test system: transgenic soybean T0 events
Experiment: Additional greenhouse trials of T0 soybean events, leaf damage score 0-100 as percentiles
Type: in vivo
Conditions: Cmpd. 1 300 g AI/ha, five days; 75th minus 25th percentile
From the text: In additional greenhouse trials, 21 to 94 independent T0 soybean events per construct containing an exemplary mutant HPPD polypeptide were sprayed with the HPPD inhibitor herbicide Cmpd. […] Five days after the application, the leaf damaged area due to the HPPD inhibitor herbicide is scored in a scale from 0 (no damage) to 100 (complete bleaching). Under those conditions, the wild-type plants were completely bleached and their damage scores were in the 95-100 range.
Table 9 presents the distribution of the HPPD inhibitor herbicide damage score data as percentile for exemplary mutant HPPD inhibitor herbicide tolerant polypeptides (SEQ ID NOs). The percentiles normalize ranks of the damage score from an individual plant in a population. […] The median is the 50th percentile. Half the values had higher damage scores; half had lower damage scores. […] The difference between the 75th and 25th percentile is called the interquartile range and a marker to quantify scattering in the population. All constructs had only one single cassette insertion in the soybean genome.
In Table 9, the constructs were ranked based on injury scores according to the 75th percentile, from smallest to highest score. All exemplary HPPD polypeptide variants are better in all percentile analyses than the prior art mutant HPPD polypeptide (WO2014/043435) corresponding to SEQ ID NO:2 in this invention. The scoring of the prior art mutant HPPD polypeptide (WO2014/043435) corresponding to SEQ ID NO:2 in this invention is listed in the bottom row of Table 9.

Row | Molecule | leaf damage score, Interquartile range
13 | B7 | 10.0
14 | B8 | 10.0
15 | B9 | 6.3
16 | B10 | 10.0
17 | B11 | 10.0
18 | B12 | 12.0
19 | B13 | 5.0
20 | B14 | 10.0

Same assay, conditions: Cmpd. 1 300 g AI/ha, five days; scale 0 (no damage) to 100 (complete bleaching)

Row | Molecule | leaf damage score, 25th percentile
21 | B7 | 5.0
22 | B8 | 10.0
23 | B9 | 10.0
24 | B10 | 5.0
25 | B11 | 10.0
26 | B12 | 8.0
27 | B13 | 10.0
28 | B14 | 10.0

Same assay, conditions: Cmpd. 1 300 g AI/ha, five days; scale 0-100

Row | Molecule | leaf damage score, 75th percentile | leaf damage score, 90th percentile | leaf damage score, Median
29 | B7 | 15.0 | 70.0 | 10.0
30 | B8 | 20.0 | 62.5 | 10.0
31 | B9 | 16.3 | 38.5 | 10.0
32 | B10 | 15.0 | 49.0 | 10.0
33 | B11 | 20.0 | 65.0 | 15.0
34 | B12 | 20.0 | 45.0 | 10.0
35 | B13 | 15.0 | 34.5 | 10.0
36 | B14 | 20.0 | 35.0 | 10.0
